# Experimental data from article PMC9992173, “Mapping of the extracellular RBP4 ligand binding domain on the RBPR2 receptor for Vitamin A transport” (Frontiers in Cell and Developmental Biology, 2023).
# B1: msStra6 (40) peptide (peptide)
# peptide: SVVPTVQKVRAGINTDVSYLLAGFGIVLSEDRQEVVELVK
# notes: mouse STRA6 peptide of 40 residues with Tyr336, Gly340 and Gly342; also called msSTRA6 peptide; mouse STRA6 peptide; source: synthetic peptide (Biomatik Corporation)
# B2: msRbpr2 (42) peptide (peptide)
# peptide: HVRDKLDMFEDKLESYLTHMNETGTLTPIILQVKELISVTKG
# notes: mouse RBPR2 (STRA6like) peptide of 42 residues with the SYL residues S294, Y295, L296; also called WT-msRBPR2 peptide; mouse RBPR2 peptide; source: synthetic peptide (Biomatik Corporation)
# B3: zebRBPR2 (34) peptide (peptide)
# peptide: DKLDSLKDSLEQIALSCNQTESVFTYLIPSINEF
# notes: zebrafish RBPR2 peptide of 34 residues; also called zebrafish RBPR2 peptide; source: synthetic peptide (Biomatik Corporation)
# Target: T1, Recombinant mouse RBP4 with 6XHis Tag (mouse, UniProt Q00724 19-201)
# T1 construct: Amine-coupled to a CM5 chip for SPR; also called msRBP4; source: E. coli expression system, purified (nickel NTA column)
# Experiment: SPR; mouse RBP4 amine-coupled to a CM5 chip (target 1,200 RU), Biacore S200; peptides as analytes, 0.8-26.6 uM; running buffer PBST (0.05% Tween20); 25 C; contact 120 s, dissociation 300 s; Kd from the site-specific binding fit Y=(Bmax*X)/(Kd+X)
# Details: both partners purified
row,Binder,Kd [µM]
1,B1,26.7
2,B2,25.4
3,B3,33.2
